Measurements: patent publication US20160161500A1, “METHOD OF SCREENING AN ANTIBODY” (SAMSUNG ELECTRONICS CO., LTD., priority 2014, published 2016)
One block for each binder: values may come before it.

Molecular target: T1, c-Met on EBC-1 cells (UniProt P08581 25-1390, limits assumed)
T1 construct: whole, on cells; EBC-1 is a human lung cancer line; also called c-Met on the cell surface
Assay: flow cytometry on EBC-1 cells; antibody bound at pH 7.4, cells fixed, then buffers of pH 1.5 to 7.4
Experimental: In order to examine the degree of influence of pH conditions on the binding of anti-c-Met antibody and c-Met, the antibody was reacted with c-Met to form a binding therebetween, and then, treated with buffer with various pH to change the pH conditions, and then, the amount of the antibody which maintain the binding to the antigen (c-Met) at a certain pH was measured.
In particular, EBC-1 cells (ATCC) were counted and seeded in e-tubes at the amount of about 3×10⁵ cells per tube. As a medium, RPMI-1640 (Gibco) was employed. The cell culture was washed with phosphate buffer saline (PBS; pH 7.4) to remove the medium, and treated with each of c-Met antibodies A, B, and C, and c-Met bispecific antibody A, provided in Example 1, at the amount of 1 μg/ml per a tube, and then, kept in ice for 30 minutes. The obtained cells were treated with 4% formaldehyde for 10 minutes to be fixed. After washing with PBS(pH7.4), the cells treated with FACS buffer with various pH (0.2%(v/v) FBS (Fetal bovine serum) in PBS, pH 1.5, 2.0, 2.5, 3.0, 4.0, 5.0, 6.0, or 7.4) and kept in ice for 5 minutes. […] The c-Met antibody attached to cell surface was quantified by Flow cytometry (BD, FACS Cantoll).

T1 sequence (P08581 25-1390 limits assumed): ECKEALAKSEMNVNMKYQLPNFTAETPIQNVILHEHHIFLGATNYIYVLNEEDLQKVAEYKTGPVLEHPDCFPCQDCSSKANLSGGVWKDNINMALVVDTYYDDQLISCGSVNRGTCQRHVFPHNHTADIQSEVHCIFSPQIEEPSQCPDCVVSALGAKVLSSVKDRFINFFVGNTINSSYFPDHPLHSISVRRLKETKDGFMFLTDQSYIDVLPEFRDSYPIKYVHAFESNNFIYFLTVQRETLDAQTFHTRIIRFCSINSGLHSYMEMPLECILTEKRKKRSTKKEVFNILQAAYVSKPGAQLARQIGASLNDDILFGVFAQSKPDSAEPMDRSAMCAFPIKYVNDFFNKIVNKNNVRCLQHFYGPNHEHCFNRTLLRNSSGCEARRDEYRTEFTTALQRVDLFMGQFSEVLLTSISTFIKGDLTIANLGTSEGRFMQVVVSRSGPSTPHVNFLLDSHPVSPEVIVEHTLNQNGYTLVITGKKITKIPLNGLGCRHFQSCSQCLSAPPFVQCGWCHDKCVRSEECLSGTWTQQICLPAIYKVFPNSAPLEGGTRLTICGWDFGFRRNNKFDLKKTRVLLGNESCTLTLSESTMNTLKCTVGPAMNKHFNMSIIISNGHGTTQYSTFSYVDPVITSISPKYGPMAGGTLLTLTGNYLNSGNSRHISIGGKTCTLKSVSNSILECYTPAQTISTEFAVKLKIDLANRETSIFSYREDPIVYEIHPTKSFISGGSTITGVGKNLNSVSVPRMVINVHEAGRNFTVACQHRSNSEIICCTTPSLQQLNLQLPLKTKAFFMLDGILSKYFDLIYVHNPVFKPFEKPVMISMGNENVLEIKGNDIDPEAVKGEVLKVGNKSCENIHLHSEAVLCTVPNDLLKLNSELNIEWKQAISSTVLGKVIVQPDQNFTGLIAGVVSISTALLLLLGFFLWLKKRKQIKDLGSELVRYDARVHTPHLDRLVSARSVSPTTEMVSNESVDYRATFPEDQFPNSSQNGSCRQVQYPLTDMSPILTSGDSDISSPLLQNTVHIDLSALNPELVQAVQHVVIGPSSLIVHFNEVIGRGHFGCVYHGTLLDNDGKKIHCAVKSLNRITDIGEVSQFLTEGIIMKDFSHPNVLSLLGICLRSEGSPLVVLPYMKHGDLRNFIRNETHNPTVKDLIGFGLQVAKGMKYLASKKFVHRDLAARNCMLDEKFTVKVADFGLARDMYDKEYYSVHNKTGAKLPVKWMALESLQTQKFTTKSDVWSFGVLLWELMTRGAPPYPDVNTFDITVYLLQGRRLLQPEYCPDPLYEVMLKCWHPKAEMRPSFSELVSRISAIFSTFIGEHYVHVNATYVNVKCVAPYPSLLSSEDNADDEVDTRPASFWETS

binding result: binds
B1: Anti-c-Met/anti-EGFR bispecific antibody A (bispecific antibody, human IgG2, kappa)
heavy: EVQLVESGGGLVQPGGSLRLSCAASGFTFTDYYMSWVRQAPGKGLEWLGFIRNKANGYTTEYSASVKGRFTISRDNSKNTLYLQMNSLRAEDTAVYYCARDNWFAYWGQGTLVTVSSASTKGPSVFPLAPCSRSTSESTAALGCLVKDYFPEPVTVSWNSGALTSGVHTFPAVLQSSGLYSLSSVVTVPSSNFGTQTYTCNVDHKPSNTKVDKTVERKCCVECPPCPAPPVAGPSVFLFPPKPKDTLMISRTPEVTCVVVDVSHEDPEVQFNWYVDGVEVHNAKTKPREEQFNSTFRVVSVLTVVHQDWLNGKEYKCKVSNKGLPAPIEKTISKTKGQPREPQVYTLPPSREEMTKNQVSLTCLVKGFYPSDIAVEWESNGQPENNYKTTPPMLDSDGSFFLYSKLTVDKSRWQQGNVFSCSVMHEALHNHYTQKSLSLSPGKGGGGSGGGGSEVQLLESGGGLVQPGGSLRLSCAASGFTFSNYDMSWVRQAPGKCLEWVSGISHSSGSKYYADSVKGRFTISRDNSKNTLYLQMNSLRAEDTAVYYCAKDATPRPLKPFDYWGQGTLVTVSSGGGGSGGGGSGGGGSQSVLTQPPSASGTPGQRVTISCTGSSSNIGNNDVSWYQQLPGTAPKLLIYDDNKRPSGVPDRFSGSKSGTSASLAISGLRSEDEADYYCGSWDASLNAYVFGCGTKLTVLG
light: DIQMTQSPSSLSASVGDRVTITCKSSQSLLASGNQNNYLAWYQQKPGKAPKMLIIWASTRVSGVPSRFSGSGSGTDFTLTISSLQPEDFATYYCQQSYSRPYTFGQGTKVEIKRTVAAPSVFIFPPSDEQLKSGTASVVCLLNNFYPREAKVQWKVDNALQSGNSQESVTEQDSKDSTYSLSSTLTLSKADYEKHKVYACEVTHQGLSSPVTKSFNRGEC
notes: Anti-c-Met antibody A (IgG2) with an anti-EGFR scFv (VH-linker-VL) linked to the C-terminus of its Fc; also called c-Met bispecific antibody A

binding result: binds
B2: Anti-c-Met antibody A (antibody, human IgG2, kappa, V domains shown)
VH: EVQLVESGGGLVQPGGSLRLSCAASGFTFTDYYMSWVRQAPGKGLEWLGFIRNKANGYTTEYSASVKGRFTISRDNSKNTLYLQMNSLRAEDTAVYYCARDNWFAYWGQGTLVTVSS
VL: DIQMTQSPSSLSASVGDRVTITCKSSQSLLASGNQNNYLAWYQQKPGKAPKMLIIWASTRVSGVPSRFSGSGSGTDFTLTISSLQPEDFATYYCQQSYSRPYTFGQGTKVEIKR
notes: IgG2 antibody
